The target of assay [1] is T1, Flag-HA-tagged ST8SiaII expressed in HEK293 cells (Mus musculus (assumed), UniProt O35696, N-glycosylated (several glycoforms, fully glycosylated about 60 kDa)).
T1 construct: polysialyltransferase ST8SiaII; The empty vector of the control is pcDNA3-FLAG-HA; The CHO line of the functional rows carries N-terminally Flag-HA-tagged murine ST8SiaII; also called polyST; source: HEK293, transiently transfected, in lysate
Briefly: co-IP; HEK293 cells co-transfected with Flag-HA-tagged polyST and myc-tagged intrabody; lysis in 50 mM Tris-HCl pH 8, 1 mM MgCl2, 1% NP-40; precipitated with anti-myc antibody and Protein G PLUS Agarose; blot with anti-FLAG M5. The conditions noted are these: partners not purified.

Assay [2] has as its target T2, Flag-HA-tagged ST8SiaIV expressed in HEK293 cells (Cricetulus griseus (assumed), UniProt Q64690, N-glycosylated (several glycoforms, fully glycosylated about 55 kDa)).
T2 construct: polysialyltransferase ST8SiaIV; The empty vector of the control is pcDNA3-FLAG-HA; The CHO line of the functional rows carries Flag-HA-tagged hamster ST8SiaIV; also called ST8SiaVI; polyST; source: HEK293, transiently transfected, in lysate
The description is as above. Particulars: partners not purified.

T1 sequence (O35696 whole entry): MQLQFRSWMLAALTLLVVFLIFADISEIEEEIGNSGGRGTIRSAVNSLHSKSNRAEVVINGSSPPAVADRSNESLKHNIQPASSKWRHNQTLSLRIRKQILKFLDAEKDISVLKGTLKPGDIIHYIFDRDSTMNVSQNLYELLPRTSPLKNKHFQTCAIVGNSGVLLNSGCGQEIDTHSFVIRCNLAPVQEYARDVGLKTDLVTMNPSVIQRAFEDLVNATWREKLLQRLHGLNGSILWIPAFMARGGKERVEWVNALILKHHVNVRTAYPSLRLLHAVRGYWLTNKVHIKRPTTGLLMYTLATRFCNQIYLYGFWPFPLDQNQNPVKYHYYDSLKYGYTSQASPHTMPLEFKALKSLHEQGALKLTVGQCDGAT
T2 sequence (Q64690 whole entry): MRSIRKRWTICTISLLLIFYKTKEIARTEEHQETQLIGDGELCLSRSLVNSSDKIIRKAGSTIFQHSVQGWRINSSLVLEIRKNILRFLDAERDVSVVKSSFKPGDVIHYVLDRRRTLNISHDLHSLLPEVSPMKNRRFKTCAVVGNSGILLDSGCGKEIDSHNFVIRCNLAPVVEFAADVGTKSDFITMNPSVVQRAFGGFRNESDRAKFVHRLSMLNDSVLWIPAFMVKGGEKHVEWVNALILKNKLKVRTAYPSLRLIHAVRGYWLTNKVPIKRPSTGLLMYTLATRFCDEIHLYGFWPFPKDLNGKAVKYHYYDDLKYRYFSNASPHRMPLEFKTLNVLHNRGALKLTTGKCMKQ

B1: αST8SiaII-IB (ER intrabody against ST8SiaII, scFv from mAb 3167) (scFv, V domains shown)
VH: QVQLQQPGAELVKAGASVKLSCKASGYTFTNYWMHWVKQRPGQGLEWIGEIDPSESYTNYNQKFKGKATLTVDKSASTAYMQLSSLTSEDSAVYYCTRGDYWGQGTTLTVSS
VL: DVVVTQTPLSLPVSFGDQVSISCRSSQSLANSYGNTYLSWYLHKPGQSPQLLIYGISNRFSGVPDRFSGSGSGTDFTLKISTIKPEDLGIYYCLQGAHQPWTFGGGTKLEIK
notes: synthetic linker, printed as (Gly4 Ser)3; Encoded with an N-terminal ER signal peptide from the vector pCMV/myc/ER; the myc tag is followed by the ER retention signal; also called anti-ST8SiaII-IB; anti-ST8SiaII intrabody; source: HEK293, transiently transfected (pCMV/myc/ER), in lysate; not shown: myc, C-terminal, kept
As to B1, the binding result in assay [1] was “binds”.

B2: αST8SiaIV-IB (ER intrabody against ST8SiaIV, scFv from mAb 3175) (scFv, V domains shown)
VH: EVQLQQSGAELVRSGASVKLSCTTSGFNIKDYYMHWVKQRPEQGLEWIGWIDPENGDTEYAPKFQGKATMTADTSSNTAYLQLSSLTSEDTAVYYCNYRFLAMEYWGQGTSVTVSS
VL: NIMMTQSPSSLAVSAGEKVTMSCKSSQSVLYTSNQKNYLAWYQQKPGQSPKLLIYWASTRESGVPDRFTGSGSGTDFTLTISSVQAEDLAVYYCHQYLSSYTFGGGTKLEIK
notes: synthetic linker, printed as (Gly4 Ser)3; Encoded with an N-terminal ER signal peptide from the vector pCMV/myc/ER; the myc tag is followed by the ER retention signal; also called anti-ST8SiaIV-IB; anti-ST8SiaIV intrabody; source: HEK293, transiently transfected (pCMV/myc/ER), in lysate; not shown: myc, C-terminal, kept
Turning to B2, in assay [2], the binding result was “binds”.

(Values after publication PMC5429572, “Intrabodies against the Polysialyltransferases ST8SiaII and ST8SiaIV inhibit Polysialylation of NCAM in rhabdomyosarcoma tumor cells” (BMC Biotechnology, 2017).)
